Results on one molecule are retold here after PMC3355305, “Localized Dimerization and Nucleoid Binding Drive Gradient Formation by the Bacterial Cell Division Inhibitor MipZ” (Molecular Cell, 2012).

The subject of this experiment is double-stranded oligonucleotide (ran2). Description: SPR analysis of the interaction between MipZ and DNA. The experiment is classed as binding. On the procedure:
Figure S5. Surface plasmon resonance (SPR) analysis of the interaction betw een MipZ and DNA, Related to Figure 4.
(A) Effect of Mg2+ on the DNA-binding activity of MipZ. A double-stranded oligonucleotide (ran2, 700 RU) was immobilized on an SPR sensor chip and probed with MipZ (1 µM). The binding reactions were performed in buffer BC containing the indicated nucleotide (2 mM) and no (ATP + Mg2+) or 10 mM (no nucleotide, ADP, ATP) EDTA, respectively.
(B) DNA-binding specificity of MipZ. A double-stranded oligonucleotide (ran2, 500 RU) was immobilized on an SPR sensor chip and allowed to react with MipZ protein (1 µM) that had been preincubated with 2 mM ATP and a double-stranded oligonucleotide (ran2, 6 µM) (dsDNA), a single-stranded oligonucleotide (top strand of ran2, 6 µM) (ssDNA), an oligoribo-nucleotide (with a sequence analogous to the top strand of ran2, 6 µM) (RNA) or polyphosphate (25 µg/ml) (PP), respectively. A reaction performed in the absence of any competitor served as a control. […]
experimental conditions used (data not shown). The dissociation rate constant determined for the reaction without ParB was […]
obtained from crystals flash frozen in a solution of 95% 2 mM, sa mp le s were taken and analyzed for the amount ethanol/50 mM Tris (pH 8.5), and collected at ID23-2, of [α-32P]-GDP produced in the reaction as described ESRF (Grenoble, France). […]
A general note: In SPR one partner is held on a chip, and binding of the other changes the refractive index at the surface.

B1: MipZ: P loop ATPase and cell division inhibitor of Caulobacter crescentus; hexahistidine-tagged in vitro, YFP fusion in FRAP (protein)
chain: MAETRVIVVGNEKGGAGKSTIAVHLVTALLYGGAKVAVIDLDLRQRTSARFFENRRAWLDNKKIELPEPLALNLSDNDVALAERPEEEQVAGFEAAFARAMAECDFILIDTPGGDSAITRMAHGRADLVVTPMNDSFVDFDMLGTVDPVTLELTKPSLYSLTVWEGRKQRALSGQRQAMDWVVLRNRLATTEARNRKRLEDRLNALAKRVGFRIGPGLRDRVIYRELFPFGLTIADLSPQVRPVPVSLQHLAARQELRALMHSLGLSAYSGETMLAAQ
modifications: left off: His6, end not stated, state not stated
notes: hexahistidine-tagged in vitro, YFP fusion in FRAP
In the case of B1, the “rate constant for the dissociation of MipZ from DNA (koff)” value (MipZ 0.5 µM, 2 mM ATP, without ParB) came out at 0.025 s⁻¹. Besides, where the note is “in vitro”, the “half-time t1/2 of dissociation of MipZ from DNA” value is on record as 28 s.
